Patent US10323078B2, “Isolated peptides and fragments thereof from fibrinogen for use as drugs, particularly in skin inflammatory diseases” (Universite Paris Descartes, priority 2015, dated 2019)

Tests used:
Pfg = experiment: Western ligand blot with biotinylated Pfg; type: binding, Propionibacterium acnes; conditions: biotinylated Pfg 0.1 μg/ml
HDF cells = experiment: IL-8 production by P. acnes-stimulated HDF (ELISA); type: cell-based, human; conditions: 0.87 to 7 μM
Description: For experiences of stimulation with P. acnes, cells were incubated with the P. acnes suspension adjusted at the appropriate concentration, pre-treated for 1 h at 37° C. or not with fibrinogen recombinant peptides Fg1 and Fg2 at the concentrations 0.87, 1.75, 3.5 or 7 μM for the desired period of time at 37° C. in 5% CO2.
Human IL-1ß, IL-8, IL-12, hBD-2, and TNF-α protein concentration was measured in the supernatants of stimulated cells using various ELISA Set kits (Ready-Set-Go kit from eBioscience for acne experiments, and for psoriasis experiments the Duo set IL-8 kit from R&D Systems and the BD-2 Human Development (hBD-2) from Peprotech) according to the manufacturer's instructions. We used serial dilutions of recombinant human IL-1ß, IL-8, IL-12 and TNF-α for standard curve. The optical density was determined at 450 nm at a wavelength correction of 540 nm.
To assess the efficacy of Fg1 recombinant peptide, the production of O2^∘− and H2O2 by HaCaT cells NHDK, THP-1, MRC5 and HDF stimulated by pretreated P. acnes strains 6919, RON and PIE was measured. The amount of ROS produced was compared to that produced by the stimulated cells with untreated bacteria. Production baseline was obtained by measuring ROS on unstimulated cells. The production of IL-1ß, IL-8, IL-12 and TNF-α was also measured in all conditions cited above. The measurement of the production of ROS is performed by spectrofluorimetry in the presence of specific fluorochromes directly on the monolayer cell. Measurement of cytokine production was performed in parallel on the cell culture supernatant.
Two sets of experiments were implemented: 1) The cells were stimulated (18 h at 37° C.) by P. acnes strains previously pretreated with Fg1 and Fg2 peptides at the final concentrations ranging from 0.87 to 7 μM for 1 h at 37° C.; and 2) The cells were pretreated first with Fg1 and Fg2 peptides at the final concentrations ranging from 0.87 to 7 μM for 24 h at 37° C. and stimulated (18 h at 37° C.) by P. acnes strains.

Molecule	Recognition by biotinylated Pfg after electrophoretic separation of fibrinogen (Pfg; 10 μg per lane, 10% SDS-PAGE)	Recognition of GST-fused recombinant Bß fibrinogen fragments by biotinylated Pfg (Pfg; E. coli total protein after IPTG induction, 12.5% SDS-PAGE)	Inhibition of Interleukine 8 (IL-8) production (HDF cells; P. acnes 6919, set I, bacteria first pretreated)	Inhibition of Interleukine 8 (IL-8) production (HDF cells; P. acnes 6919, set II, cells first pretreated)	Inhibition of Interleukine 8 (IL-8) production (HDF cells; P. acnes PIE, set I, bacteria first pretreated)	Inhibition of Interleukine 8 (IL-8) production (HDF cells; P. acnes PIE, set II, cells first pretreated)	Inhibition of Interleukine 8 (IL-8) production (HDF cells; P. acnes RON, set I, bacteria first pretreated)	Inhibition of Interleukine 8 (IL-8) production (HDF cells; P. acnes RON, set II, cells first pretreated)
human fibrinogen: purified commercial human fibrinogen (Sigma), glycoprotein hexamer of Aα, Bß and γ chains	recognized by Pfg							
MKRMVSWSFHKLKTMKHLLLLLLCVFLVKSQGVNDNEEGFFSARGHRPLDKKREEAPSLRPAPPPISGGGYRARPAKAAATQKKVERKAPDAGGCLHADPDLGVLC (protein, GST fusion; fragment Fg1, fragment of Bß chain of human fibrinogen having 106 amino acids; recombinant GST-fused peptide expressed in E. coli) MKRMVSWSFHKLKTMKHLLLLLLCVFLVKSQGVNDNEEGFFSARGHRPLDKKREEAPSLRPAPPPISGGGRARPAKAAATQKKVERKAPDAGGCLHADPDLGVLCMKRMVSWSFHKLKTMKHLLLLLLCVFLVKSQGVNDNEEGFFSARGHRPLDKKREEAPSLRPAPPPISGGGYRARPAKAAATQKKVERKAPDAGGCLHADPDLGVLC		recognized	pos	pos	pos	pos	pos	pos
